In this assay the target is T1, GST full-length Sp7 (mouse, UniProt Q8VI67 1-428).
T1 construct: Sp7 (Osterix, Osx), mouse cDNA, full length; also called GST-Sp7; Osterix
The experiment in a line: co-IP; purified GST fusion proteins incubated together, immunoprecipitated with anti-Sp7, anti-Dlx3 or anti-GCN5 antibody and protein G agarose beads, IgG as negative control, detected by Western blotting. The conditions noted are these: both partners purified.

T1 sequence (Q8VI67 whole entry): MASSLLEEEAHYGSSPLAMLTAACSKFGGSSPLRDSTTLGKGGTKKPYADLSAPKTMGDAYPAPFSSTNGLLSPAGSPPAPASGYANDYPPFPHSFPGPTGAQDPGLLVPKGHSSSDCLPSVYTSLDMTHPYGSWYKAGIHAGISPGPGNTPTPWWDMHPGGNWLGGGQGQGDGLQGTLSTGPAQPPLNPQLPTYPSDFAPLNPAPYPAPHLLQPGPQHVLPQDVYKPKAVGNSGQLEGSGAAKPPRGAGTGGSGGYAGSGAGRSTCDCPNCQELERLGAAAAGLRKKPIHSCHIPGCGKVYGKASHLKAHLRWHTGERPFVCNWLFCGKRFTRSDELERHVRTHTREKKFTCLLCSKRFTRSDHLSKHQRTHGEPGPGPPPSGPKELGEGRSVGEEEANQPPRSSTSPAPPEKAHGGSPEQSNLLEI

B1: GST full-length Dlx3 (natural protein)
chain: not shown
notes: Dlx3, mouse cDNA, full length; also called GST-Dlx3
As to B1, the binding result is “binds”.

Source of the values: paper PMC10543288, “Loss of Bmp2 impairs odontogenesis via dysregulating pAkt/pErk/GCN5/Dlx3/Sp7” (Research Square, 2023).
